Source: article PMC5510004, “Recruitment and positioning determine the specific role of the XPF‐ERCC1 endonuclease in interstrand crosslink repair”

Target: T1, XPF L219R;ERCC1 wild type (hsERCC1) (Xenopus laevis;Homo sapiens?, UniProt A0A8J0PXV9;P07992 1-897;1-297, L219R|)
T1 sequence 1: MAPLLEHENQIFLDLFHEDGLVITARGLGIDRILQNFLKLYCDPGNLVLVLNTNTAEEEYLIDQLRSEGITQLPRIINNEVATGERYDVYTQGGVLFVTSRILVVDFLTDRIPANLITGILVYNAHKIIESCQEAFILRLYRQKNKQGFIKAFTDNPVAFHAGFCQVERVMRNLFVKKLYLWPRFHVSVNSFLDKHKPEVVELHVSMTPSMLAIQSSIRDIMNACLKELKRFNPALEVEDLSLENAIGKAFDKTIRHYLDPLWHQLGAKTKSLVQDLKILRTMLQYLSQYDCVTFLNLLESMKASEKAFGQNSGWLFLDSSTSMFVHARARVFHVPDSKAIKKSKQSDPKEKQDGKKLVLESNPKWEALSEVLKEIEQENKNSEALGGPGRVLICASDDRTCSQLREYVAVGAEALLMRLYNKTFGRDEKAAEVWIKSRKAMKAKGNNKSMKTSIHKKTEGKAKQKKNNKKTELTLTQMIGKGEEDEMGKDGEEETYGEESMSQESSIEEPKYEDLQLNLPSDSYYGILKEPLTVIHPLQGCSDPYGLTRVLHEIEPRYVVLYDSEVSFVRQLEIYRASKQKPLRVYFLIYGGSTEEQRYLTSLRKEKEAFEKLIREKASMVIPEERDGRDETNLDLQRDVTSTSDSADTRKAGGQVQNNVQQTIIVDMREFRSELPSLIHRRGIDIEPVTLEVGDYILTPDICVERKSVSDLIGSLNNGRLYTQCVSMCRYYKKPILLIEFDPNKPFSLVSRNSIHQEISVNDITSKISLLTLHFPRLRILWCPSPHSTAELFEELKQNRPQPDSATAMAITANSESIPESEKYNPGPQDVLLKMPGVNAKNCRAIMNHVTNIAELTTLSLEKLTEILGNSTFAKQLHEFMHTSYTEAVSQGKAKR
T1 sequence 2: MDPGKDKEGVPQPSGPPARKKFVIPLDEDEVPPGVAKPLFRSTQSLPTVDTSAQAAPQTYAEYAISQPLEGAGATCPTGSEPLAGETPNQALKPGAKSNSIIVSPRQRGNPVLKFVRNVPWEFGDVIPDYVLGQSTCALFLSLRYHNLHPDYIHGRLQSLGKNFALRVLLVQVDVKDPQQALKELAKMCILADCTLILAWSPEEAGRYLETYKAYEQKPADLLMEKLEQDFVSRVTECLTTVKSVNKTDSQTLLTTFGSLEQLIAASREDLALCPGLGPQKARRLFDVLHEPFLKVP
Assay: fluorescence anisotropy; 2 mM Ca2+; comparable to wild type; 25 mM Hepes pH 8.0, 15% glycerol, 0.1 mg/ml BSA, 2 mM CaCl2, 10 nM DNA, 1 h at room temperature
Conditions: protein: recombinant;recombinant; tags: FLAG;His; copies: 1;1; label: 5'-FAM on F1; three strands 1:1:1

B1: 3' flap DNA substrate (F1+F2+F3) (dsDNA)
DNA 1: CGCGATGCGGATCCAA
DNA 2: CCTAGACTTAAGAGGCCAGACTTGGATCCGCATCGC
DNA 3: GGCCTCTTAAGTCTAGG
B1: binds.
